# Experimental data: patent US20030165995A1 (Takeda / Millennium, published 2003)
# T1: CCR6 expressed on transfected L1.2 cells (UniProt P51684 1-374, limits assumed)
# T1 construct: whole, on cells
# T1 sequence (looked up): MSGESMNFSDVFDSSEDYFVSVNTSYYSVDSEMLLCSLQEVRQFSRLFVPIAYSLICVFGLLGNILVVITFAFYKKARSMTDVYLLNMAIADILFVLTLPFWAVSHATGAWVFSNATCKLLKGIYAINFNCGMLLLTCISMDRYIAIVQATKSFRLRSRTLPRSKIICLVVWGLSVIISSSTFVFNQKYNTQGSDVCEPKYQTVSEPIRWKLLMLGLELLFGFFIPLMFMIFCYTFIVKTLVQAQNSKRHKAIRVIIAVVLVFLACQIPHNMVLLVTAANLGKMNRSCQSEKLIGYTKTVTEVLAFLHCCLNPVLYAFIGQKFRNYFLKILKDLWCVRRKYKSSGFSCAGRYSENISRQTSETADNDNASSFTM
# T2: CCR7 expressed on transfected L1.2 cells (UniProt P32248 25-378, limits assumed)
# T2 construct: whole, on cells
# T2 sequence (looked up): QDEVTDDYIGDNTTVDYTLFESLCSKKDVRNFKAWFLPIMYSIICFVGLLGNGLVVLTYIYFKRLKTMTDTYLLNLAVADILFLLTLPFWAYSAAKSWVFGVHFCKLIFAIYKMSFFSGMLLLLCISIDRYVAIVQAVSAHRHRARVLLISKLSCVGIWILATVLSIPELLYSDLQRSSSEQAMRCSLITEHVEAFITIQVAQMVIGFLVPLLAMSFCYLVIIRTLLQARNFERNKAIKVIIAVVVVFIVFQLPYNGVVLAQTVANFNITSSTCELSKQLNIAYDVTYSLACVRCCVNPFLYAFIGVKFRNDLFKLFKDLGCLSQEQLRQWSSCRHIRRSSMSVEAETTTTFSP
# T3: human Bonzo with N-terminal hemagglutinin (HA) epitope, expressed on transfected L1.2 cells (Bonzo/L1.2 cells) (human, UniProt O00574 1-342)
# T3 construct: also called CXCR6; STRL33
# T3 sequence: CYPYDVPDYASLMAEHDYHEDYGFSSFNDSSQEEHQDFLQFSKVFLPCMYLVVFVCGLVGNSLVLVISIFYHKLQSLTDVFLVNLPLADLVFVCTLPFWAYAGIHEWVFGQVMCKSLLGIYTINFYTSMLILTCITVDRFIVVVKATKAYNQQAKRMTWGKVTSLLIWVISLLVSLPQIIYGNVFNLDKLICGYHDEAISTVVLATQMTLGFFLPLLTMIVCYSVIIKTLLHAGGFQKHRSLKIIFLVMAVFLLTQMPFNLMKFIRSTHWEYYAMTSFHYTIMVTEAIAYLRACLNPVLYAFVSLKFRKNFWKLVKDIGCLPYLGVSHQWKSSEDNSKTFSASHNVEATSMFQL
# B1: purified recombinant His-tagged SExCkine (entire predicted extracellular domain, amino acid residues 1 to 202 of SEQ ID NO:4) (ligand)
# chain: NEGSVTGSCYCGKRISSDSPPSVQFMNRLRKHLRAYHRCLYYTRFQLLSWSVCGGNKDPWVQELMSCLDLKECGHAYSGIVAHQKHLLPTSPPISQASEGASSDIHTPAQMLLSTLQSTQRPTLPVGSLSSDKELTRPNETTIHTAGHSLAVGPEAGENQKQPEKNAGPTART
# modifications: heavily glycosylated; iodinated with 125I where used as tracer
# notes: Expressed in 293T cells, purified on wheat germ agglutinin and NiNTA; also called purified recombinant SExCkine (CXCL16); recombinant His-tagged SExCkine protein; not shown: C-terminal His tag from the pEF-His vector
# Assays:
# [1] = target: T1, CCR6 expressed on transfected L1.2 cells; assay: 125I-labeled SExCkine binding to receptor transfectants
# [2] = target: T2, CCR7 expressed on transfected L1.2 cells; assay: as above
# [3] = target: T3, human Bonzo with N-terminal …; assay: Scatchard analysis of 125I-labeled SExCkine binding to Bonzo/L1.2 cells
# Method: (§1) The amount of ¹²⁵I-labeled SExCkine (CXCL16) that bound to Bonzo/L1.2 cells was determined by scintillation counting, and % inhibition of binding (0% inhibition is the amount of binding in the absence of unlabeled SExCkine (CXCL16)) was calculated. […] FIG. 43B depicts the Scatchard analysis of the binding data.
# (§2) Exponentially-growing Bonzo/L1.2 transfectants were counted on the day of the assay and were resuspended in binding assay buffer (BAB) (10 mM HEPES/1 mM CaCl₂/5 mM MgCl₂/0.5% BSA/0.05% Na Azide) at a density of 2.5×10⁶ cells/mL. Purified recombinant SExCkine (CXCL16) was labeled with I¹²⁵ using a sodium iodine method (Amersham, Arlington Heights, Ill.) and was diluted to 4 nM in BAB. Cold (unlabeled) SExCkine (in PBS at 5.3 μM) was diluted for competition in BAB to 0.4 nM, 2 nM, 4 nM, 20 nM, 40 nM, and 400 nM. […] For calculation of total I¹²⁵ input, 50 μL of cells was added to 25 μL of I¹²⁵I-labeled SExCkine and 25 μL BAB. All tubes were incubated for 1 hour at room temperature, after which time the cells were spun down at 3500 rpm and washed five times in BAB+0.5 M NaCl. After the final wash, the cell pellet was resuspended in 100 μL of wash buffer and the I¹²⁵ counts were calculated using a Cobra II auto-gamma scintillation counter (Packard, Downers Grove, Ill.) along with the total input sample. Binding data was calculated using a program written in Excel.
# [4] = target: T3, human Bonzo with N-terminal …; assay: competition with 1 nM 125I-labeled SExCkine for binding to Bonzo/L1.2 cells, gamma counting
# Method: as §1, §2
binder,measurement,setting,value
B1,binding result,[1],no binding
same,binding result,[2],no binding
same,Kd,[3],1 nM
same,IC50,[4],1 nM
